Measurements as given in PMC8782820.

Columns and labels:
[1] = biological target: hepcidin-imprinted silk fibroin (SilMA) nanoparticles, bioMIPs (Bombyx mori); test: competitive fluorescence assay; bioMIPs incubated with hepfitc (500 pmol) alone or with one competitor (hepcidin; angiotensin, cytochrome c or human serum albumin 6 nmol); bound hepfitc at 30 min; triplicate
[2] = biological target: hepcidin-imprinted silk fibroin (SilMA) nanoparticles, bioMIPs (Bombyx mori); test: other fluorescence titration; 37.5 μg of bioMIPs or non-imprinted SF-NPs per well incubated with hepfitc 3 nM–2.5 μM in PBS 10 mM pH 7.4 with 0.08% Tween-20, read at 30 min; Langmuir fit; apparent
[3] = biological target: hepcidin-imprinted silk fibroin (SilMA) nanoparticles, bioMIPs (Bombyx mori); test: competitive fluorescence assay; 30 μg/well of bioMIPs with hepcidin-depleted pooled serum (10 μL in 150 μL PBS 10 mM pH 7.4, 0.08% Tween-20), hepfitc 500 or 250 pmol, hepcidin competitor 0.11, 0.34, 0.68, 2.70 μM; displacement from ≥ 120 min of incubation; Hill fit
[4] = biological target: hepcidin-imprinted silk fibroin (SilMA) nanoparticles, bioMIPs (Bombyx mori); test: ITC; hepcidin 28 μM (syringe, 50 μL) titrated into bioMIP or control SF-NPs 2.5 μM (220 μL) in 50 mM PBS pH 7.4, 25 °C, 16 injections of 3 μL; independent site model; triplicate

Row | Substance | hepfitc bound at 30 min [1] | Kd [2] | imprinting factor (hepfitc bound to the bioMIP with respect to that bound to the NIP) [2] | Ka [3] | Kd [3] | Kd [4] | dH [4] | stoichiometry N [4]
1 | fluorescent hepcidin (hepfitc) (peptide) | 125 pmol | 1670 nM | 2 | – | – | – | – | –
2 | Hepcidin-25 (from UniProt P81172 60-84) (peptide) | – | – | – | 2.41e+06 M⁻¹ | 410 nM | 360 nM | -14 kcal/mol | 2.1
